Holding throughout (assay): cell-based or functional assay
Assay [1] has as its target T1, HIV-1 envelope protein of HIV-1 strain pNL4-3 (CXCR4 tropism) (HIV-1 strain pNL4-3).
In assay [2] the target is T2, HIV-1 envelope protein of HIV-1 strain pAD-8 (CCR5 tropism) (HIV-1 strain pAD-8).
Assay [3] deals with T1, HIV-1 envelope protein of HIV-1 strain …. The source holds these as a separate data set.
Assay [4] deals with T2, HIV-1 envelope protein of HIV-1 strain …. The source holds these as a separate data set.
Assay [5] has as its target T1, HIV-1 envelope protein of HIV-1 strain …. This is another data set of the same source.
Assay [6] has as its target T2, HIV-1 envelope protein of HIV-1 strain …. This is another data set of the same source.

B1: Anti-HIV amphotropic neutralizing antibody-like molecule KL-BsHIV01-02 (bispecific antibody)
chain: SELTQDPAVSVALKQTVTITCRGDSLRSHYASWYQKKPGQAPVLLFYGKNNRPSGIPDRFSGSASGNRASLTITGAQAEDEADYYCSSRDKSGSRLSVFGGGTKLTVLGGGGSGGGGSGGGGSEVRLRESGGGLVKPGGSLRLSCSASGFDFDNAWMTWVRQPPGKGLEWVGRITGPGEGWSVDYAESVKGRFTISRDNTKNTLYLEMNNVRTEDTGYYFCARTGKYYDFWFGYPPGEEYFQDWGQGTLVIVSSGGGGSGGGGSGGGGSGGGGSGGGGSDIVMTQSPDSLAVSLGERVTMNCKSSQSLLYSTNQKNYLAWYQQKPGQSPKLLIYWASTRESGVPDRFSGSGSGTDFTLTISSVQAEDVAVYYCQQYYSYRTFGGGTKLEIKRTVAGGGGSGGGGSGGGGSQVQLQQSGPEVVKPGASVKMSCKASGYTFTSYVIHWVRQKPGQGLDWIGYINPYNDGTDYDEKFKGKATLTSDTSTSTAYMELSSLRSEDTAVYYCAREKDNYATGAWFAYWGQGTLVTVSS
For the molecule B1, in assay [1], the “Neutralization percentage; serum of mice injected with AAV vector, serum stock volume 0.005 uL; TZM-bl luciferase” value was 27.7%; the “Neutralization percentage; serum of mice injected with AAV vector, serum stock volume 0.05 uL; TZM-bl luciferase” value amounted to 79%; the “Neutralization percentage; serum of mice injected with AAV vector, serum stock volume 0.5 uL; TZM-bl luciferase” value is 100%. Also, in assay [2], the “Neutralization percentage; serum of mice injected with AAV vector, serum stock volume 0.005 uL; TZM-bl luciferase” value was -15.7%; the “Neutralization percentage; serum of mice injected with AAV vector, serum stock volume 0.05 uL; TZM-bl luciferase” value is -4.43%; the “Neutralization percentage; serum of mice injected with AAV vector, serum stock volume 0.5 uL; TZM-bl luciferase” value is 81.7%. In assay [3], the “Neutralization percentage; AAV vector-transduced C2C12 supernatant, antibody concentration 2.5 ng/ml; TZM-bl luciferase” value is 100%; the “Neutralization percentage; AAV vector-transduced C2C12 supernatant, antibody concentration 5 ng/ml; TZM-bl luciferase” value turned out to be 101%; the “Neutralization percentage; AAV vector-transduced C2C12 supernatant, antibody concentration 10 ng/ml; TZM-bl luciferase” value came out at 100%. Moreover, in assay [4], the “Neutralization percentage; AAV vector-transduced C2C12 supernatant, antibody concentration 2.5 ng/ml; TZM-bl luciferase” value amounted to 100%; the “Neutralization percentage; AAV vector-transduced C2C12 supernatant, antibody concentration 5 ng/ml; TZM-bl luciferase” value was found to be 100%; the “Neutralization percentage; AAV vector-transduced C2C12 supernatant, antibody concentration 10 ng/ml; TZM-bl luciferase” value is 100%.

B2: Anti-HIV tritropic neutralizing antibody-like molecule KL-BsHIV01-003-02 (other)
chain: SELTQDPAVSVALKQTVTITCRGDSLRSHYASWYQKKPGQAPVLLFYGKNNRPSGIPDRFSGSASGNRASLTITGAQAEDEADYYCSSRDKSGSRLSVFGGGTKLTVLGGGGSGGGGSGGGGSEVRLRESGGGLVKPGGSLRLSCSASGFDFDNAWMTWVRQPPGKGLEWVGRITGPGEGWSVDYAESVKGRFTISRDNTKNTLYLEMNNVRTEDTGYYFCARTGKYYDFWFGYPPGEEYFQDWGQGTLVIVSSGGGGSGGGGSGGGGSGGGGSGGGGSDIVMTQSPDSLAVSLGERVTMNCKSSQSLLYSTNQKNYLAWYQQKPGQSPKLLIYWASTRESGVPDRFSGSGSGTDFTLTISSVQAEDVAVYYCQQYYSYRTFGGGTKLEIKRTVAGGGGSGGGGSGGGGSQVQLQQSGPEVVKPGASVKMSCKASGYTFTSYVIHWVRQKPGQGLDWIGYINPYNDGTDYDEKFKGKATLTSDTSTSTAYMELSSLRSEDTAVYYCAREKDNYATGAWFAYWGQGTLVTVSSGGGGSGGGGSGGGGSGGGGSGGGGSWEQKIEELLKKAEEQQKKNEEELKKLEK
For the molecule B2, in assay [1], the “Neutralization percentage; serum of mice injected with AAV vector, serum stock volume 0.005 uL; TZM-bl luciferase” value was 23.4%; the “Neutralization percentage; serum of mice injected with AAV vector, serum stock volume 0.05 uL; TZM-bl luciferase” value stood at 56.7%; the “Neutralization percentage; serum of mice injected with AAV vector, serum stock volume 0.5 uL; TZM-bl luciferase” value was determined as 99.4%. For the same molecule, in assay [2], the “Neutralization percentage; serum of mice injected with AAV vector, serum stock volume 0.005 uL; TZM-bl luciferase” value was -11.7%; the “Neutralization percentage; serum of mice injected with AAV vector, serum stock volume 0.05 uL; TZM-bl luciferase” value is -6.85%; the “Neutralization percentage; serum of mice injected with AAV vector, serum stock volume 0.5 uL; TZM-bl luciferase” value amounted to 62.5%. In assay [5], the “IC50 for neutralizing HIV-1 strain pNL4-3 (CXCR4 tropism); purified antibody, TZM-bl luciferase” value stood at 0.2 pM. Moreover, the “IC50 for neutralizing HIV-1 strain pAD-8 (CCR5 tropism); purified antibody, TZM-bl luciferase” value in assay [6] came to 3.1 pM. In assay [3], the “Neutralization percentage; AAV vector-transduced C2C12 supernatant, antibody concentration 2.5 ng/ml; TZM-bl luciferase” value was found to be 101%; the “Neutralization percentage; AAV vector-transduced C2C12 supernatant, antibody concentration 5 ng/ml; TZM-bl luciferase” value was determined as 101%; the “Neutralization percentage; AAV vector-transduced C2C12 supernatant, antibody concentration 10 ng/ml; TZM-bl luciferase” value was determined as 100%. Moreover, in assay [4], the “Neutralization percentage; AAV vector-transduced C2C12 supernatant, antibody concentration 2.5 ng/ml; TZM-bl luciferase” value turned out to be 100%; the “Neutralization percentage; AAV vector-transduced C2C12 supernatant, antibody concentration 5 ng/ml; TZM-bl luciferase” value stood at 100%; the “Neutralization percentage; AAV vector-transduced C2C12 supernatant, antibody concentration 10 ng/ml; TZM-bl luciferase” value came to 100%.

(Values after patent publication US20240352096A1 (KANGLIN BIOTECHNOLOGY HANGZHOU, published 2024).)
